T1: EsCas13d, nuclease-dead (Eubacterium siraeum, UniProt B0MS50, R295A;H300A;R849A;H854A)
T1 sequence: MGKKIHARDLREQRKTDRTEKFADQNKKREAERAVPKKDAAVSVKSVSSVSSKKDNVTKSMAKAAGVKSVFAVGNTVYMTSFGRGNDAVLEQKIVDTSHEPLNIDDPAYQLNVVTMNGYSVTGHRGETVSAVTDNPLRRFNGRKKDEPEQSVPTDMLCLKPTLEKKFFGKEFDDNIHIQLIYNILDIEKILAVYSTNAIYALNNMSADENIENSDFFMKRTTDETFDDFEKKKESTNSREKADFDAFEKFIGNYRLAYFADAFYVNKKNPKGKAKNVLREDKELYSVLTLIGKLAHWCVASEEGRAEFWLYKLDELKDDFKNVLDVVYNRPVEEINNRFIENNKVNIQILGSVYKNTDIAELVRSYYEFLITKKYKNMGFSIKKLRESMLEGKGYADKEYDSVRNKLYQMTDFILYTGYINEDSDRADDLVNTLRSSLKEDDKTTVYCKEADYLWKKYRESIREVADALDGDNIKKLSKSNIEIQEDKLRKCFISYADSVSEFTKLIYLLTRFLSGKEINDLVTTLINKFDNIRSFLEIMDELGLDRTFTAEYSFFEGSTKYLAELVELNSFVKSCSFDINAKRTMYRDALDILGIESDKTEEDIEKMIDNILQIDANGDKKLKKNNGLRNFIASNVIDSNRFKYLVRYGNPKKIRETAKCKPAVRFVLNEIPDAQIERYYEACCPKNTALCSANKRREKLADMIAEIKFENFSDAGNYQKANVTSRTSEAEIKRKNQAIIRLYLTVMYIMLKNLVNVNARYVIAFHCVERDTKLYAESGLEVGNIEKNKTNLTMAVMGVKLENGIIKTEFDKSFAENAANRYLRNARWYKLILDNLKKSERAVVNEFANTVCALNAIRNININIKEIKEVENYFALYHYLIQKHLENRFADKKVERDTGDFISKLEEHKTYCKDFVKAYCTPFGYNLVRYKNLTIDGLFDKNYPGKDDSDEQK


Molecular target: T1, EsCas13d, nuclease-dead
Assay: crRNA (strand 1, pre-loaded); Mg2+; 40 mM Tris-HCl pH 7.5, 150 mM NaCl, 6 mM MgCl2, 1 mM DTT, 0.1% Tween-20, 0.2 mg/ml BSA; 25 C; 10 min per concentration, then washed
Conditions: tags: His6-TwinStrep-SUMO cleaved; N-terminal SNAP kept (SNAP-Surface 488); label: 3' end held by stalled T7 RNA polymerase

Binder | Kd [nM]
target 1 insG 3' of 2 (mixed) RNA 1: CACCCGUGCAAAAAUGCAGGGGUCUAAAACUGAGCGGAUAACCUCUCUAUGG RNA 2: GGGAAUGGAUCCACAUCUACGAAUUCGUACCAUAGAGAGGUUAUCCGCUCGACCGAGAUCGGAAGAGCACACGU | 8.6 ± 0.4
target 1 insA 3' of 10,insA 3' of 3 (mixed) RNA 1: CACCCGUGCAAAAAUGCAGGGGUCUAAAACUGAGCGGAUAACCUCUCUAUGG RNA 2: GGGAAUGGAUCCACAUCUACGAAUUCGUACCAUAGAGAGGUUAAUCCGCUACACCGAGAUCGGAAGAGCACACGU | 8.56 ± 0.34
target 1 insA 3' of 21 (mixed) RNA 1: CACCCGUGCAAAAAUGCAGGGGUCUAAAACUGAGCGGAUAACCUCUCUAUGG RNA 2: GGGAAUGGAUCCACAUCUACGAAUUCGUACCAAUAGAGAGGUUAUCCGCUCACCGAGAUCGGAAGAGCACACGU | 13.8 ± 1.2
target 2 MT 5'PFS AAU 3'PFS CGG (mixed) RNA 1: CACCCGUGCAAAAUUGCAGGGGUCUAAAACCUUCUCCAAAUUGUUUCAUCCU RNA 2: GGGAAUGGAUCCACAUCUACGAAUUCAAUAGGAUGAAACAAUUUGGAGAAGCGGAGAUCGGAAGAGCACACGU | 4.6 ± 0.6
target 2 MT 5'PFS UUA 3'PFS CCA (mixed) RNA 1: CACCCGUGCAAAAUUGCAGGGGUCUAAAACCUUCUCCAAAUUGUUUCAUCCU RNA 2: GGGAAUGGAUCCACAUCUACGAAUUCUUAAGGAUGAAACAAUUUGGAGAAGCCAAGAUCGGAAGAGCACACGU | 29 ± 5
target 2 MT 5'PFS UUC 3'PFS AAC (mixed) RNA 1: CACCCGUGCAAAAUUGCAGGGGUCUAAAACCUUCUCCAAAUUGUUUCAUCCU RNA 2: GGGAAUGGAUCCACAUCUACGAAUUCUUCAGGAUGAAACAAUUUGGAGAAGAACAGAUCGGAAGAGCACACGU | 15 ± 4
target 2 MT 5'PFS UUG 3'PFS CAA (mixed) RNA 1: CACCCGUGCAAAAUUGCAGGGGUCUAAAACCUUCUCCAAAUUGUUUCAUCCU RNA 2: GGGAAUGGAUCCACAUCUACGAAUUCUUGAGGAUGAAACAAUUUGGAGAAGCAAAGAUCGGAAGAGCACACGU | 9.9 ± 1.4
target 2 MT 5'PFS CUU 3'PFS AAC (mixed) RNA 1: CACCCGUGCAAAAUUGCAGGGGUCUAAAACCUUCUCCAAAUUGUUUCAUCCU RNA 2: GGGAAUGGAUCCACAUCUACGAAUUCCUUAGGAUGAAACAAUUUGGAGAAGAACAGAUCGGAAGAGCACACGU | 4.3 ± 0.5
target 2 MT 5'PFS UUG 3'PFS CAC (mixed) RNA 1: CACCCGUGCAAAAUUGCAGGGGUCUAAAACCUUCUCCAAAUUGUUUCAUCCU RNA 2: GGGAAUGGAUCCACAUCUACGAAUUCUUGAGGAUGAAACAAUUUGGAGAAGCACAGAUCGGAAGAGCACACGU | 16.4 ± 2.2
target 2 MT 5'PFS ACA 3'PFS AAG (mixed) RNA 1: CACCCGUGCAAAAUUGCAGGGGUCUAAAACCUUCUCCAAAUUGUUUCAUCCU RNA 2: GGGAAUGGAUCCACAUCUACGAAUUCACAAGGAUGAAACAAUUUGGAGAAGAAGAGAUCGGAAGAGCACACGU | 10 ± 5
target 2 MT 5'PFS GAU 3'PFS UUA (mixed) RNA 1: CACCCGUGCAAAAUUGCAGGGGUCUAAAACCUUCUCCAAAUUGUUUCAUCCU RNA 2: GGGAAUGGAUCCACAUCUACGAAUUCGAUAGGAUGAAACAAUUUGGAGAAGUUAAGAUCGGAAGAGCACACGU | 23 ± 7
target 2 MT 5'PFS UUG 3'PFS CAU (mixed) RNA 1: CACCCGUGCAAAAUUGCAGGGGUCUAAAACCUUCUCCAAAUUGUUUCAUCCU RNA 2: GGGAAUGGAUCCACAUCUACGAAUUCUUGAGGAUGAAACAAUUUGGAGAAGCAUAGAUCGGAAGAGCACACGU | 9.1 ± 1.2
target 2 MT 5'PFS GGA 3'PFS UCA (mixed) RNA 1: CACCCGUGCAAAAUUGCAGGGGUCUAAAACCUUCUCCAAAUUGUUUCAUCCU RNA 2: GGGAAUGGAUCCACAUCUACGAAUUCGGAAGGAUGAAACAAUUUGGAGAAGUCAAGAUCGGAAGAGCACACGU | 10.4 ± 1.4
target 2 MT 5'PFS GGA 3'PFS UCG (mixed) RNA 1: CACCCGUGCAAAAUUGCAGGGGUCUAAAACCUUCUCCAAAUUGUUUCAUCCU RNA 2: GGGAAUGGAUCCACAUCUACGAAUUCGGAAGGAUGAAACAAUUUGGAGAAGUCGAGAUCGGAAGAGCACACGU | 17.4 ± 2.7
target 2 MT 5'PFS CUU 3'PFS AAG (mixed) RNA 1: CACCCGUGCAAAAUUGCAGGGGUCUAAAACCUUCUCCAAAUUGUUUCAUCCU RNA 2: GGGAAUGGAUCCACAUCUACGAAUUCCUUAGGAUGAAACAAUUUGGAGAAGAAGAGAUCGGAAGAGCACACGU | 4.1 ± 0.4
target 2 MT 5'PFS UUA 3'PFS CCG (mixed) RNA 1: CACCCGUGCAAAAUUGCAGGGGUCUAAAACCUUCUCCAAAUUGUUUCAUCCU RNA 2: GGGAAUGGAUCCACAUCUACGAAUUCUUAAGGAUGAAACAAUUUGGAGAAGCCGAGAUCGGAAGAGCACACGU | 39 ± 4
target 2 MT 5'PFS ACA 3'PFS AAA (mixed) RNA 1: CACCCGUGCAAAAUUGCAGGGGUCUAAAACCUUCUCCAAAUUGUUUCAUCCU RNA 2: GGGAAUGGAUCCACAUCUACGAAUUCACAAGGAUGAAACAAUUUGGAGAAGAAAAGAUCGGAAGAGCACACGU | 8.3 ± 1.4
target 2 MT 5'PFS CAC 3'PFS CUC (mixed) RNA 1: CACCCGUGCAAAAUUGCAGGGGUCUAAAACCUUCUCCAAAUUGUUUCAUCCU RNA 2: GGGAAUGGAUCCACAUCUACGAAUUCCACAGGAUGAAACAAUUUGGAGAAGCUCAGAUCGGAAGAGCACACGU | 2.9 ± 1
target 2 MT 5'PFS CUG 3'PFS AUG (mixed) RNA 1: CACCCGUGCAAAAUUGCAGGGGUCUAAAACCUUCUCCAAAUUGUUUCAUCCU RNA 2: GGGAAUGGAUCCACAUCUACGAAUUCCUGAGGAUGAAACAAUUUGGAGAAGAUGAGAUCGGAAGAGCACACGU | 3.17 ± 0.32
target 2 MT 5'PFS CUG 3'PFS AUA (mixed) RNA 1: CACCCGUGCAAAAUUGCAGGGGUCUAAAACCUUCUCCAAAUUGUUUCAUCCU RNA 2: GGGAAUGGAUCCACAUCUACGAAUUCCUGAGGAUGAAACAAUUUGGAGAAGAUAAGAUCGGAAGAGCACACGU | 2.63 ± 0.24
target 2 MT 5'PFS CCC 3'PFS UUA (mixed) RNA 1: CACCCGUGCAAAAUUGCAGGGGUCUAAAACCUUCUCCAAAUUGUUUCAUCCU RNA 2: GGGAAUGGAUCCACAUCUACGAAUUCCCCAGGAUGAAACAAUUUGGAGAAGUUAAGAUCGGAAGAGCACACGU | 1.25 ± 0.21
target 2 MT 5'PFS GGA 3'PFS UCC (mixed) RNA 1: CACCCGUGCAAAAUUGCAGGGGUCUAAAACCUUCUCCAAAUUGUUUCAUCCU RNA 2: GGGAAUGGAUCCACAUCUACGAAUUCGGAAGGAUGAAACAAUUUGGAGAAGUCCAGAUCGGAAGAGCACACGU | 24.2 ± 2.8
target 2 MT 5'PFS GAG 3'PFS AUG (mixed) RNA 1: CACCCGUGCAAAAUUGCAGGGGUCUAAAACCUUCUCCAAAUUGUUUCAUCCU RNA 2: GGGAAUGGAUCCACAUCUACGAAUUCGAGAGGAUGAAACAAUUUGGAGAAGAUGAGAUCGGAAGAGCACACGU | 5.9 ± 0.4
target 2 MT 5'PFS AGU 3'PFS AGU (mixed) RNA 1: CACCCGUGCAAAAUUGCAGGGGUCUAAAACCUUCUCCAAAUUGUUUCAUCCU RNA 2: GGGAAUGGAUCCACAUCUACGAAUUCAGUAGGAUGAAACAAUUUGGAGAAGAGUAGAUCGGAAGAGCACACGU | 6.8 ± 0.7
target 2 MT 5'PFS AGU 3'PFS AGG (mixed) RNA 1: CACCCGUGCAAAAUUGCAGGGGUCUAAAACCUUCUCCAAAUUGUUUCAUCCU RNA 2: GGGAAUGGAUCCACAUCUACGAAUUCAGUAGGAUGAAACAAUUUGGAGAAGAGGAGAUCGGAAGAGCACACGU | 12.3 ± 1.9
target 2 MT 5'PFS CUU 3'PFS AAA (mixed) RNA 1: CACCCGUGCAAAAUUGCAGGGGUCUAAAACCUUCUCCAAAUUGUUUCAUCCU RNA 2: GGGAAUGGAUCCACAUCUACGAAUUCCUUAGGAUGAAACAAUUUGGAGAAGAAAAGAUCGGAAGAGCACACGU | 2.9 ± 0.35
target 2 MT 5'PFS CUU 3'PFS AAU (mixed) RNA 1: CACCCGUGCAAAAUUGCAGGGGUCUAAAACCUUCUCCAAAUUGUUUCAUCCU RNA 2: GGGAAUGGAUCCACAUCUACGAAUUCCUUAGGAUGAAACAAUUUGGAGAAGAAUAGAUCGGAAGAGCACACGU | 4.3 ± 0.6
target 2 MT 5'PFS UUG 3'PFS CAG (mixed) RNA 1: CACCCGUGCAAAAUUGCAGGGGUCUAAAACCUUCUCCAAAUUGUUUCAUCCU RNA 2: GGGAAUGGAUCCACAUCUACGAAUUCUUGAGGAUGAAACAAUUUGGAGAAGCAGAGAUCGGAAGAGCACACGU | 11.8 ± 0.9

Reference: article PMC10786891, “Massively parallel profiling of RNA-targeting CRISPR-Cas13d”
